Laboratory results published in US20160024200A1 (published 2016).

Legend:
[1] = target: T1, human granulocyte macrophage colony-stimulating factor (GM-CSF) (human, UniProt P04141 18-144); test: cell-based or functional assay
[2] = target: T1, human granulocyte macrophage …; test: cell-based or functional assay; remark: listed apart in the source
[3] = target: T1, human granulocyte macrophage …; test: cell-based or functional assay; remark: listed apart in the source
[4] = target: T1, human granulocyte macrophage …; test: SPR, Biacore 3000, mAb captured on anti-human IgG, GM-CSF as analyte, 25 C
Protocol: The SPR experiments were performed at 25° C. on a Biacore 3000 (GE Healthcare, Piscataway, N.J.) using a CM5 sensor chip and HBS-P (10 mM HEPES, pH 7.4, 150 mM NaCl, 0.01% P-20) or HBS-EP (10 mM HEPES, pH 7.4, 150 mM NaCl, 3 mM EDTA, 0.01% P-20). Anti-human IgG (Fc) (GE Healthcare) or anti-human IgG (Southern Biotech, cat. #2040-01) was immobilized similarly on the experimental and reference flow cells using standard amine coupling. […] GM-CSF made in-house or purchased (Genscript, Cat. #Z00349), was injected over the mAb-coated cell and reference cell at the following concentrations: 100, 50, 25, 12.5, 6.25, 3.12, 1.5 and 0.8 nM. The flow rate was 30 μL/min and triplicate blank injections and replicate injections of the 12.5 nM GM-CSF were included to account for any drift and to ensure assay reproducibility. […] To regenerate the capture surface, two 30 sec pulses of a 2:1 mixture of glycine (pH 2) to 3 M MgCI was utilized. All data were double reference subtracted in that they were subtracted both from the reference cell and from a blank injection. Data were fit to a 1:1 model with (for those with very fast on-rates) or without a mass transport term using the Biacore 3000 evaluation software.

T1 sequence (P04141 18-144 limits assumed): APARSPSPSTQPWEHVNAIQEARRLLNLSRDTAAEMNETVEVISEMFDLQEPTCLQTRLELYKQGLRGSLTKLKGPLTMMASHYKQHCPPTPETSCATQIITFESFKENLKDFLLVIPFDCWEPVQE

B1: F1 human monoclonal antibody against GM-CSF (antibody, V domains shown)
VH: QVQLQESGPGVVKPSETLSLTCSVSDSAIRKYYWSWIRQPPGQGLEYIGYIYASGSSFYNPSFKSRVSMSVDATNNQFYLKLTSVTAADTAVYYCAAITGTTDLWGRGTLVTVSS
VL: DIQMTQSPSSVSASVGDRVTITCRASQGINRRLAWYQQKPGKAPKRLIYAVSTLQSGVPSRFNGSGSGTDFTLTVNNVQPDDLAMYFCLQSNNYPLTFGGGTKVEIK
notes: also called F1 antibody; purified F1
- IC50, TF-1 assay [1]: < 1 ng/mL
- IC50, TF-1 assay (200 pg/mL GM-CSF) [1]: 0.7 to 0.8 ng/mL
- IC50 (ng/mL), TF-1 assay [2]: 0.8 ng/mL
- IC50 (read off the curve); CD11b on human neutrophils in whole blood with 10 ng/mL GM-CSF (FACS), % inhibition [3]: ~50 ng/mL
- Kd [4]: 0.12 nM
- koff [4]: 0.0001 s⁻¹
- kon [4]: 830000 M⁻¹ s⁻¹
